The results in this text go back to US20130210673A1 (published 2013).

To fix the notation:
T1: human C-reactive protein (human, UniProt P02741 19-224, biotinylated or conjugated to AlexaFluor488 for labeling)
T1 construct: Bought protein; also called CRP; C-RP
T1 sequence (looked up): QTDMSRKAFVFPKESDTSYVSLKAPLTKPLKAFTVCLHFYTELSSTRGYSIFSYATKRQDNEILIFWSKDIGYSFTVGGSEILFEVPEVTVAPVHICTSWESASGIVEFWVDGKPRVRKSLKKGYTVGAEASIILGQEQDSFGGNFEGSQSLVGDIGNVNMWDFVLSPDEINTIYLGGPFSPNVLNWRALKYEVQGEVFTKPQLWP

One experiment deals with T2, streptavidin (UniProt P22629 37-163, limits assumed).
T2 construct: Used as streptavidin-phycoerythrin in flow cytometry and as coated beads for YFP-SA-1; also called SA; streptavidin-phycoerythrin
T2 sequence (P22629 37-163 limits assumed): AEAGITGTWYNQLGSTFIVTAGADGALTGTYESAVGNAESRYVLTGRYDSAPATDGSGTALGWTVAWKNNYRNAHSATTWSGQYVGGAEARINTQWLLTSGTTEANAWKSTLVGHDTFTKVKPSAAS
Description: bacterial display selection.
For ICSYVMYTTCFLRVY (insert only) [SEQ ID NO 237], the binding result was “binds”. In the case of IMMECFYVCTIANTQ (insert only) [SEQ ID NO 245], the binding result was “binds”. Still for that read-out and setting: in the case of RLEICQNVCYYLGTL (insert only) [SEQ ID NO 235] it was “binds”. With TWVQCTMVCYGMSTT (insert only) [SEQ ID NO 242], the binding result is recorded as “binds”. On the same count and under the same terms, to NEWYCQNVCERMPHS (insert only) [SEQ ID NO 241] belongs “binds”. In the case of TVLICMNICWTGETQ (insert only) [SEQ ID NO 236], the binding result is recorded as “binds”. In the case of ADTICWYVCTISVHA (insert only) [SEQ ID NO 244], the binding result is “binds”. As for LPVWCVMHVCLTSSR (insert only) [SEQ ID NO 239], the binding result is on record as “binds”. With YWVCMNVCMYYTARQ (insert only) [SEQ ID NO 238], the binding result is “binds”.

The target of another experiment is T1, human C-reactive protein. Description: bacterial display selection.
Take FPIYNQRGFITLASP (insert only) [SEQ ID NO 256]: the binding result is on record as “binds”. With MIFNSRGFLSLMSSG (insert only) [SEQ ID NO 253], the binding result is listed as “binds”. Same read-out and setting: in the case of EWACNDRGFNCQLQR (insert only) [SEQ ID NO 255] it was “binds”; in that of YPPRFQYYRFYYRGP (insert only) [SEQ ID NO 247], “binds”.

Another experiment concerns the target T2, streptavidin. Put plainly: flow cytometry, equilibrium. The protocol:
The corresponding mean fluorescence versus concentration data were fit to a monovalent binding isotherm to obtain the apparent KD. Dissociation rates of streptavidin-binding clones were measured in the presence of about 1 to about 2 μM biotin. Cells were labeled with 50 nM streptavidin-phycoerythrin for 30 minutes at room temperature. The cells were then pelleted, resuspended in PBS with biotin, and immediately analyzed by flow cytometry. Fluorescence data were collected continuously for about five minutes. The dissociation rate constants were then determined as described previously. See Daugherty, P. S., et al. (1998) Protein Eng. 11(9):825-832, which is herein incorporated by reference.
(In general: In flow cytometry, cells or beads pass a laser one at a time.)
RLEICQNVCYYLGTL (insert only) [SEQ ID NO 232]: the binding result was “binds”. As for TVLICMNICWTGETQ (insert only) [SEQ ID NO 233], the binding result is reported as “binds”. Turning to ICSYVMYTTCFLRVY (insert only) [SEQ ID NO 234], the binding result is listed as “binds”.
